In publication PMC12631878, “Single‐Cell Transcriptome Analysis Reveals That Hmga2 Regulates Neuroinflammation and Retinal Function by Modulating Müller Cell Autophagy Through PI3K/AKT Signaling Following MCAO‐Induced Retinal Ischemia” (Advanced Science, 2025):

Molecular target: PI3K (protein used in biolayer interferometry) (UniProt P26450 1-724)
Assay: BLI; biolayer interferometry; format and conditions not told in the main text (Figure S4)

Sequence of PI3K (protein used in biolayer interferometry) (P26450 2-724): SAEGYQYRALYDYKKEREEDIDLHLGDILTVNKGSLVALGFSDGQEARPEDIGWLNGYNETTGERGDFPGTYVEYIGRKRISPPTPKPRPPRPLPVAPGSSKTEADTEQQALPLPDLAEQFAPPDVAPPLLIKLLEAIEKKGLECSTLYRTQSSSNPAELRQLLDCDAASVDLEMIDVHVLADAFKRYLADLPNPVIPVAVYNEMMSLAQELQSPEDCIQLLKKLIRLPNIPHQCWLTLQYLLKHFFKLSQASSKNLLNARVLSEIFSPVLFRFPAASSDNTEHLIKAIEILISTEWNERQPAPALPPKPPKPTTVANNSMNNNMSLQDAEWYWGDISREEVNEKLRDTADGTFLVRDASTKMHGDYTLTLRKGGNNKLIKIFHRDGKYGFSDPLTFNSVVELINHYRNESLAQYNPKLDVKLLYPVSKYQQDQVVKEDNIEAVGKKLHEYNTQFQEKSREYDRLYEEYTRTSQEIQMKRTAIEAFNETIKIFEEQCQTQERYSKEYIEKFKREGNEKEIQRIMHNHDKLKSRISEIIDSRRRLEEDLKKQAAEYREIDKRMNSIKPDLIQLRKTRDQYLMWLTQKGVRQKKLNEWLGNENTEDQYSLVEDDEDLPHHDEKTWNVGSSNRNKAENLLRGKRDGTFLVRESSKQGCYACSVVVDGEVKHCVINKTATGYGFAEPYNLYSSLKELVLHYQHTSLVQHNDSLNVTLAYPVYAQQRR

Kd: 12 nM
B1: Hmga2 (protein used in biolayer interferometry) (natural protein, UniProt P52927 1-108, looked up)
chain: MSARGEGAGQPSTSAQGQPAAPVPQKRGRGRPRKQQQEPTCEPSPKRPRGRPKGSKNKSPSKAAQKKAETIGEKRPRGRPRKWPQQVVQKKPAQETEETSSQESAEED
notes: Hmga2 as used in the biolayer interferometry assay; The main text has no methods for the BLI experiment
